Legend:
[1] = target: BG505 SOSIP.664 gp140 trimer (HIV); assay: SPR
[2] = target: F84T Malay BanLec (Musa acuminata ssp. malaccensis); assay: crystal structure; WT and F84T Malay BanLec each at 5 mg/mL in 10 mM HEPES pH 7.5, 150 mM NaCl; crystals grown at 20 °C from ammonium sulfate; dimers in the asymmetric unit
[3] = target: WT Malaysian banana lectin (Malay BanLec) (Musa acuminata ssp. malaccensis); assay: as above

With F84T Malay BanLec (natural protein) the Kd [1] was 0.368 nM, the koff [1] was 0.000266 s⁻¹ and the kon [1] was 720000 M⁻¹ s⁻¹. The stoichiometry N [2] was 2.

In the case of “WT Malaysian banana lectin (Malay BanLec) (natural protein)”, the Kd [1] is reported as 0.122 nM, the koff [1] is reported as 0.00014 s⁻¹ and the kon [1] is reported as 1.33e+06 M⁻¹ s⁻¹. It also gave a stoichiometry N [3] of 2.

Work on “griffithsin (GRFT) (from UniProt P84801 1-121) (natural protein)” yielded a Kd [1] of 0.137 nM, a koff [1] of 0.00074 s⁻¹ and a kon [1] of 5.56e+06 M⁻¹ s⁻¹.
